Data on two substances can be found in article PMC5405867.

One assay concerns the target ISG15 (Mus musculus) (UniProt Q64339). The assay can be described thus: microscale thermophoresis. The following applies: cited from earlier work. (In MST a laser heats a spot of the sample, and binding alters the fluorescence response.)
Assay [1] addresses murine USP18^IBB-1-USP7, His6-tagged (mouse) (UniProt Q9WTV6).

Sequence of ISG15 (Mus musculus) (Q64339 1-155): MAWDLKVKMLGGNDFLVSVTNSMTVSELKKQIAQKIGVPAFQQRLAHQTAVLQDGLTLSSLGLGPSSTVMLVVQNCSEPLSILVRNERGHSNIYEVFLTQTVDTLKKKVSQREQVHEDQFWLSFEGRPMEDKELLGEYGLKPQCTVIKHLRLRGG

For the substance USP18 (from UniProt Q9WTV6), the dissociation constant (Kd) with ISG15 (Mus musculus) was 1.3 µM.
For the substance “mouse ISG15 (residues 1-155, C76S) (from UniProt Q64339 1-155) (natural protein)”, the catalytic activity towards ISG15-FP, percent of wild type (% of wt activity) in assay [1] was 0.5.

As usually defined, the Kd is the free concentration of one partner at which half of the binding sites on the other are occupied at equilibrium, for simple one-to-one binding.
